Source: the supplement of paper PMC12764529
± gives the half width of the 95% confidence interval.

What was measured:
[1] = folding stability dG unfold from trypsin proteolysis; higher = more stable
How it was run: (§1)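 Digests were run with trypsin and chymotrypsin at 11 concentrations in threefold dilutions, plus a no-protease condition, on designed mini-proteins in a PA-tagged cDNA display construct. The mini-proteins were under 80 residues, had no cysteine, and were kept only when AlphaFold2 dimer inter-PAE was above 15. After sequencing, Bayesian fitting of the counts gave K50, from which unfolding free energy was derived against a sequence-predicted unfolded-state K50 and a shared folded-state K50, per protease or combined.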

[2] = folding stability dG unfold from chymotrypsin proteolysis; higher = more stable
How it was run: as §1

[3] = folding stability dG unfold (combined trypsin and chymotrypsin); higher = more stable
How it was run: as §1

| Sequence | folding stability dG unfold [1] [kcal/mol] | folding stability dG unfold [2] [kcal/mol] | folding stability dG unfold [3] [kcal/mol] |
| --- | --- | --- | --- |
| SAGSPLYEVKSEEVLPGPGGEPMRVTVVELPGGEILTFVESPDGLLEIRYIPAETGKFEKTEKVPRDLLSAG [r5_750_JUSTAS] | 0.445 ± 0.06 | 0.802 ± 0.087 | 0.618 ± 0.15 |
| SAGSVETFEDPEVGRVVIVPLPGGEVLTIELPPDSITMTLTSPKGGESVTITKKMKPGEEEELIKELASSAG [r5_820_JUSTAS] | -0.521 ± 0.47 | -0.603 ± 0.45 | -0.358 ± 0.3 |
| SAGGSAGGSAGDPVLTVTLLDDNHPVTLTYHPGEKTVTVSVYPLKSGKVLGTVTVPASELSAGGSAGGSAGG [r11_231_TrMRF] | -1.45 ± 0.71 | 0.37 ± 0.13 | -0.0506 ± 0.12 |
| SAGKEKEVKEVTIKIKIYVTNKNGEKKEITIEVKAKNKEDLLEALKKLGLSVEELKEKFPNIKIVEIEPSAG [r5_430_TrROS_Hall] | 2.3 ± 0.22 | 4.05 ± 0.22 | 4.01 ± 0.55 |
| SAGGSAGGSAMTTVTSTTEIPPSALTVKTSVSTAPDGSLVETTTVVLPDGSVVTTTLSTVASAGGSAGGSAG [r3_7_JUSTAS] | 0.974 ± 0.035 | 1.19 ± 0.018 | 1.11 ± 0.047 |
| SAGGSAMLRVFEKEHPGPFSITVLAGPGLSEEEIEELAEKLAEKKIEIEKKKIELEKKGKKPIFKKSAGGSA [r15_704_JUSTAS] | 0.327 ± 0.21 | 0.235 ± 0.43 | 0.0936 ± 0.43 |
| SAGGSAGGSADPPRSVLKEERSPDGTTTYKLLEYPGERVLVVTRTPPDGTEEVVLIPEEELSAGGSAGGSAG [r3_167_JUSTAS] | 0.322 ± 0.071 | 0.0217 ± 0.25 | 0.231 ± 0.086 |
| SAGGSAGGSKTIEIVVPPNTTPEEIAKKLKELFPDAKITSVEVYVDKKTKKIVYVKVKIEVKPSAGGSAGGS [r12_822_TrROS_Hall] | 2.68 ± 0.1 | 3.82 ± 0.057 | 3.46 ± 0.087 |
| SAGGMLVRVTLPSGETVELPVTSLDAAARRLREELGLPAGARLRVEVYDPVTGEVTEYELVIPVPEPVSAGG [r13_145_TrMRF] | 4.92 ± 0.18 | 4.33 ± 0.062 | 4.68 ± 0.1 |
| SAGGSAGGSAMEINEIVKETAKKGKNLTITVKLPDGSTVTITVTPDEDVPEDLEVLEVTVKSAGGSAGGSAG [r3_421_JUSTAS] | 0.344 ± 0.05 | 1.78 ± 0.038 | 1.4 ± 0.056 |
| SAGGSAGGSAGGMINIEGSSFEIVQPDGKPIGSESTGSAEELAKKLPSSYSVLPKGVPPSAGGSAGGSAGGS [r10_310_JUSTAS] | 1.67 ± 0.21 | 2.72 ± 0.11 | 2.25 ± 0.27 |
| SAGGSAGGSIKPGEEVTINFLVPPGNIPEFANELMKQDGIKDIEVKYQPFPNWYMVDITIRVKSAGGSAGGS [r12_993_TrROS] | 0.863 ± 0.029 | -0.0266 ± 0.14 | 0.52 ± 0.096 |
| SAGGSAGGSGVTIPIWYKMDPGQPVPTAEEIQNIINELGFPIKDIKVQYHPDNGYVRAEITVKSAGGSAGGS [r12_1052_TrROS] | 1.25 ± 0.048 | 0.828 ± 0.088 | 1.11 ± 0.17 |
| SAEEPEVVRLEIRITVVERDEDGRLREREVTLEVEVLPDGRVVIRVDGRVFVIDLETGELVEVLEDVEPSAG [r14_821_TrROS_Hall] | 3.77 ± 0.099 | 4.14 ± 0.081 | 4.02 ± 0.089 |
| SAGGSAGGSAGMPEVEVEVKIIKFDKEKNVFVIEVTDKKTGKRVTLTIKNGKIELKVEEPSAGGSAGGSAGG [r17_370_TrROS_Hall] | 2.85 ± 0.098 | 4.06 ± 0.089 | 3.7 ± 0.19 |
| SAGGSAGGSAGGYVGPDQPVIIVEVKVKGARIGKDGKIYYDFEVERIEIREVEEGDNLGSAGGSAGGSAGGS [r10_826_TrMRF] | 2.05 ± 0.21 | 1.9 ± 0.088 | 1.82 ± 0.17 |
| SMNIHIPILTRPDVDEETIEEEVEALAAELAEKLGLPEGVEVEIEPEPLPEDGVVYHVTLRVGDVEFKGESA [r9_776_TrMRF] | 0.168 ± 0.14 | 0.0835 ± 0.4 | 0.0299 ± 0.33 |
